# In patent US20110251255:
# B1: LIM kinase 1 (protein)
# chain: MRLTLLCCTWREERMGEEGSELPVCASCGQRIYDGQYLQALNADWHADCFRCCDCSASLSHQYYEKDGQLFCKKDYWARYGESCHGCSEQITKGLVMVAGELKYHPECFICLTCGTFIGDGDTYTLVEHSKLYCGHCYYQTVVTPVIEQILPDSPGSHLPHTVTLVSIPASSHGKRGLSVSIDPPHGPPGCGTEHSHTVRVQGVDPGCMSPDVKNSIHVGDRILEINGTPIRNVPLDEIDLLIQETSRLLQLTLEHDPHDTLGHGLGPETSPLSSPAYTPSGEAGSSARQKPVLRSCSIDRSPGAGSLGSPASQRKDLGRSESLRVVCRPHRIFRPSDLIHGEVLGKGCFGQAIKVTHRETGEVMVMKELIRFDEETQRTFLKEVKVMRCLEHPNVLKFIGVLYKDKRLNFITEYIKGGTLRGIIKSMDSQYPWSQRVSFAKDIASGMAYLHSMNIIHRDLNSHNCLVRENKNVVVADFGLARLMVDEKTQPEGLRSLKKPDRKKRYTVVGNPYWMAPEMINGRSYDEKVDVFSFGIVLCEIIGRVNADPDYLPRTMDFGLNVRGFLDRYCPPNCPPSFFPITVRCCDLDPEKRPSFVKLEHWLETLRMHLAGHLPLGPQLEQLDRGFWETYRRGESGLPAHPEVPD
# Molecular target: recombinant cofilin (His-tagged fusion protein of human cofilin), P23528
# Sequence (P23528 whole entry, the tested form may be a part): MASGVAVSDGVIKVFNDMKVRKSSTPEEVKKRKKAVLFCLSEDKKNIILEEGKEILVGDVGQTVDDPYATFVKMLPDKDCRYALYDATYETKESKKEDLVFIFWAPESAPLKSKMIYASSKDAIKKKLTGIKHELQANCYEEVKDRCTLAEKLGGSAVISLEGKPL
protein,measurement,value
B1,"in vitro phosphorylation of recombinant cofilin (immune complex kinase assay, autoradiography)","immunoprecipitated LIMK1 (FIG. 2, a and b) from PC3 cells was capable of phosphorylating recombinant cofilin (FIG. 2c)"
